Measured values reported in patent publication US12281340B2, “Method of producing N-acyl-amino group-containing compound” (AJINOMOTO CO., INC., priority 2018, dated 2025).

Assays:
Assay type in all cases: biochemical
[1] = Synthesis of N-lauroylamino acid / N-lauroylamino acid derivative using purified acylamino acid synthetase, UPLC-MS detection; design: key: +: Detected; −: Not detected; details: +ATP
[2] = as above; design: key: +: Detected; −: Not detected; details: +ATP; remark: listed apart in the source
Description: 0.2 mL of a reaction solution containing 50 mM Tris-HCl, 5 mM amino acid or D-amino acid derivative, 5 mM sodium laurate, 10 mM ATP, 10 mM MgCl2, 1 mM DTT, 200 μg/mL of the purified enzyme, pH 8.0 was incubated at 25° C. for 24 hours. After completion of the reaction, 0.8 mL of the reaction stop solution (1% (v/v) phosphoric acid, 75% (v/v) methanol) was added, and the mixture was filtrated through the filter followed by being subjected to the UPLC-MS analysis to detect a signal of a molecular weight corresponding to an N-lauroyl-amino acid or an N-lauroyl-amino acid derivative. The condition for the UPLC-MS analysis is as described in Example 2.
As a result of the UPLC-MS analysis, the signal of the molecular weight corresponding to the N-lauroyl-amino acid or the N-lauroyl-amino acid derivative was confirmed in the reaction solution containing the enzyme in combination with the amino acid or the amino acid derivative shown in Table 5 below.

[3] = Synthesis of N-caprinoylamino acid using purified acylamino acid synthetase, UPLC-MS detection; design: key: +: Detected; −: Not detected; details: +ATP
In short: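 Purified enzyme (50 μg) with 5 mM amino acid, 5 mM sodium caprate, 10 mM ATP, 10 mM MgCl2, 1 mM DTT in Tris-HCl pH 8.0, 24 h at 25° C; product detected by UPLC-MS (ESI-negative) as the N-caprinoyl amino acid mass signal.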

[4] = Quantification of produced N-acylamino acid (UV 210 nm) using purified acylamino acid synthetase; details: 5 mM L-Asp, 5 mM sodium fatty acid, 200 μg/mL enzyme, 25° C., 24 hours
Description: 0.1 mL of a reaction solution containing 50 mM Tris-HCl, 5 mM amino acid, 5 mM sodium fatty acid, 10 mM ATP, 10 mM MgCl2, 1 mM DTT, 200 μg/mL of the purified enzyme, pH 8.0 was incubated at 25° C. for 24 hours. As amino acids, L-Asp was used in AtGH3-6, OsGH3-8, AtGH3-5, AtGH3-12, and Gly or L-Ala was used in CfHP. After completion of the reaction, 0.4 mL of the reaction stop solution (1% (v/v) phosphoric acid, 75% (v/v) methanol) was added, and the mixture was filtrated through the filter followed by being subjected to the UPLC-MS analysis to quantify the produced N-acylamino acid by detection at UV 210 nm. The condition for the UPLC-MS analysis is as descried in Example 2. As a result of the analysis, 3.9 mM of Nα-capryloyl-L-aspartic acid, 4.5 mM of Nα-caprinoyl-L-aspartic acid and 2.2 mM of Nα-lauroyl-L-aspartic acid were detected when AtGH3-6 was used; 4.3 mM of Nα-capryloyl-L-aspartic acid, 4.6 mM of Nα-caprinoyl-L-aspartic acid and 3.5 mM of Nα-lauroyl-L-aspartic acid were detected when OsGH3-8 was used; 4.1 mM of Nα-capryloyl-L-aspartic acid, 4.6 mM of Nα-caprinoyl-L-aspartic acid and 2.5 mM of Nα-lauroyl-L-aspartic acid were detected when AtGH3-5 was used; 1.6 mM of Nα-capryloyl-L-aspartic acid, 0.6 mM of Nα-caprinoyl-L-aspartic acid and 0.2 mM of Nα-lauroyl-L-aspartic acid were detected when AtGH3-12 was used; 4.5 mM of Nα-capryloylglycine, 4.6 mM of Nα-caprinoylglycine, 0.1 mM of Nα-lauroylglycine, 3.1 mM of Nα-capryloyl-L-alanine, 3.6 mM of Nα-caprinoyl-L-alanine and 0.4 mM of Nα-lauroyl-L-alanine were detected when CfHP was used.

[5] = substrates Sarcosine and sodium laurate
[6] = substrates Taurine and sodium laurate
[7] = substrates Gly and sodium laurate
[8] = substrates L-Ala and sodium laurate
[9] = substrates L-Arg and sodium laurate
[10] = substrates L-Asp and sodium laurate
[11] = substrates L-Glu and sodium laurate
[12] = substrates L-Lys and sodium laurate
[13] = substrates L-Thr and sodium laurate
[14] = substrates β-Ala and sodium laurate
[15] = substrates GABA and sodium caprate
[16] = substrates Gly and sodium caprate
[17] = substrates L-Ala and sodium caprate
[18] = substrates L-Arg and sodium caprate
[19] = substrates L-Asn and sodium caprate
[20] = substrates L-Asp and sodium caprate
[21] = substrates L-Cys and sodium caprate
[22] = substrates L-Gln and sodium caprate
[23] = substrates L-Glu and sodium caprate
[24] = substrates L-His and sodium caprate
[25] = substrates L-Ile and sodium caprate
[26] = substrates L-Leu and sodium caprate
[27] = substrates L-Lys and sodium caprate
[28] = substrates L-Met and sodium caprate
[29] = substrates L-Phe and sodium caprate
[30] = substrates L-Pro and sodium caprate
[31] = substrates L-Ser and sodium caprate
[32] = substrates L-Thr and sodium caprate
[33] = substrates L-Trp and sodium caprate
[34] = substrates L-Tyr and sodium caprate
[35] = substrates L-Val and sodium caprate
[36] = substrates β-Ala and sodium caprate

| signal of molecular weight corresponding to N-lauroyl amino acid derivative [1, 5] | signal of molecular weight corresponding to N-lauroyl amino acid derivative [1, 6] | signal of molecular weight corresponding to N-lauroyl amino acid [2, 7] | signal of molecular weight corresponding to N-lauroyl amino acid [2, 8] | signal of molecular weight corresponding to N-lauroyl amino acid [2, 9] | signal of molecular weight corresponding to N-lauroyl amino acid [2, 10] | signal of molecular weight corresponding to N-lauroyl amino acid [2, 11] | signal of molecular weight corresponding to N-lauroyl amino acid [2, 12] | signal of molecular weight corresponding to N-lauroyl amino acid [2, 13] | signal of molecular weight corresponding to N-lauroyl amino acid [2, 14] | signal of molecular weight corresponding to N-caprinoyl amino acid [3, 15] | signal of molecular weight corresponding to N-caprinoyl amino acid [3, 16] | signal of molecular weight corresponding to N-caprinoyl amino acid [3, 17] | signal of molecular weight corresponding to N-caprinoyl amino acid [3, 18] | signal of molecular weight corresponding to N-caprinoyl amino acid [3, 19] | signal of molecular weight corresponding to N-caprinoyl amino acid [3, 20] | signal of molecular weight corresponding to N-caprinoyl amino acid [3, 21] | signal of molecular weight corresponding to N-caprinoyl amino acid [3, 22] | signal of molecular weight corresponding to N-caprinoyl amino acid [3, 23] | signal of molecular weight corresponding to N-caprinoyl amino acid [3, 24] | Molecule | further results |
| --- | --- | --- | --- | --- | --- | --- | --- | --- | --- | --- | --- | --- | --- | --- | --- | --- | --- | --- | --- | --- | --- |
| + | + | + | + | + | + | + | + | + | + | + | + | + | + | + | + | + | + | + | + | AtGH3-5: indole-3-acetic acid-amido synthetase GH3.5 from Arabidopsis thaliana, His-tagged (protein, listed as Arabidopsis thaliana, His-tag, indole-3-acetic acid-amido synthetase GH3.5 from Arabidopsis thaliana, His-tagged) MPEAPKKESLEVFDLTLDQKNKQKLQLIEELTSNADQVQRQVLEEILTRNADVEYLRRHDLNGRTDRETFKNIMPVITYEDIEPEINRIANGDKSPILSSKPISEFLTSSGTSGGERKLMPTIEEELDRRSLLYSLLMPVMSQFVPGLENGKGMYFLFIKSESKTPGGLPARPVLTSYYKSSHFKERPYDPYTNYTSPNETILCSDSYQSMYSQMLCGLCQHQEVLRVGAVFASGFIRAIKFLEKHWIELVRDIRTGTLSSLITDPSVREAVAKILKPSPKLADFVEFECKKSSWQGIITRLWPNTKYVDVIVTGTMSQYIPTLDYYSNGLPLVCTMYASSECYFGVNLRPLCKPSEVSYTLIPSMAYFEFLPVHRNNGVTNSINLPKALTEKEQQELVDLVDVKLGQEYELVVTTYAGLCRYRVGDLLRVTGFKNKAPQFSFICRKNVVLSIDSDKTDEVELQNAVKNAVTHLVPFDASLSEYTSYADTSSIPGHYVLFWELCLDGNTPIPPSVFEDCCLAVEESFNTVYRQGRVSDKSIGPLEIKIVEPGTFDKLMDYAISLGASINQYKTPRCVKFAPIIELLNSRVVDSYFSPKCPKWVPGHKQWGSN | signal of molecular weight corresponding to N-caprinoyl amino acid [3, 25]: +; signal of molecular weight corresponding to N-caprinoyl amino acid [3, 26]: +; signal of molecular weight corresponding to N-caprinoyl amino acid [3, 27]: +; signal of molecular weight corresponding to N-caprinoyl amino acid [3, 28]: +; signal of molecular weight corresponding to N-caprinoyl amino acid [3, 29]: +; signal of molecular weight corresponding to N-caprinoyl amino acid [3, 30]: +; signal of molecular weight corresponding to N-caprinoyl amino acid [3, 31]: +; signal of molecular weight corresponding to N-caprinoyl amino acid [3, 32]: +; signal of molecular weight corresponding to N-caprinoyl amino acid [3, 33]: +; signal of molecular weight corresponding to N-caprinoyl amino acid [3, 34]: +; signal of molecular weight corresponding to N-caprinoyl amino acid [3, 35]: +; signal of molecular weight corresponding to N-caprinoyl amino acid [3, 36]: +; Nα-caprinoyl-L-aspartic acid detected [4]: 4.6 mM; Nα-capryloyl-L-aspartic acid detected [4]: 4.1 mM; Nα-lauroyl-L-aspartic acid detected [4]: 2.5 mM |
| − | + | + | + | + | + | + | + | + | + | + | + | + | + | + | + | + | + | + | + | OsGH3-8: probable indole-3-acetic acid-amido synthetase GH3.8 from Oryza sativa, expressed in E. coli with N-terminal His-tag (protein, listed as Oryza sativa, N-terminal His-tag, probable indole-3-acetic acid-amido synthetase GH3.8 from Oryza sativa, expressed in E. coli with N-terminal His-tag) MAVMTDVSTTGTALRTPAAGAVKEGDVEKLRFIDEMTTNVDAVQERVLGEILGRNAGTEYLTKCGLDGATDRAAFRAKVPVVSYDDLQPYIQRIANGDRSPILSTHPVSEFLTSSGTSAGERKLMPTIMDELDRRQLLYSLLMPVMNLYVPGLDKGKGLYFLFVKSETKTPGGLTARPVLTSYYKSDHFKNRPYDPYHNYTSPTAAILCADAFQSMYAQMVCGLCQRNDVLRLGAVFASGLLRAIRFLQLNWEQLADDIESGELTPRVTDPSVREAVAAILLPDPELAKLIRAECSKGDWAGIITRVWPNTKYLDVIVTGAMAQYIPTLEFYSGGLPMACTMYASSECYFGLNLRPMCDPSEVSYTIMPNMGYFEFLPVDETGAASGDATQLVDLARVEVGREYELVITTYAGLNRYRVGDVLRVTGFHNAAPQFRFVRRKNVLLSIESDKTDEAELQRAVERASALLRPHGASVVEYTSQACTKRIPGHYVIYWELLTKGAGATVVDADTLGRCCLEMEEALNTVYRQSRVADGSIGPLEIRVVRPGTFEELMDYAISRGASINQYKVPRCVTFPPIVELLDSRVVSSHFSPALPHWTPARRSE | signal of molecular weight corresponding to N-caprinoyl amino acid [3, 25]: +; signal of molecular weight corresponding to N-caprinoyl amino acid [3, 26]: +; signal of molecular weight corresponding to N-caprinoyl amino acid [3, 27]: +; signal of molecular weight corresponding to N-caprinoyl amino acid [3, 28]: +; signal of molecular weight corresponding to N-caprinoyl amino acid [3, 29]: +; signal of molecular weight corresponding to N-caprinoyl amino acid [3, 30]: +; signal of molecular weight corresponding to N-caprinoyl amino acid [3, 31]: +; signal of molecular weight corresponding to N-caprinoyl amino acid [3, 32]: +; signal of molecular weight corresponding to N-caprinoyl amino acid [3, 33]: +; signal of molecular weight corresponding to N-caprinoyl amino acid [3, 34]: +; signal of molecular weight corresponding to N-caprinoyl amino acid [3, 35]: +; signal of molecular weight corresponding to N-caprinoyl amino acid [3, 36]: +; Nα-caprinoyl-L-aspartic acid detected [4]: 4.6 mM; Nα-capryloyl-L-aspartic acid detected [4]: 4.3 mM; Nα-lauroyl-L-aspartic acid detected [4]: 3.5 mM |
